Data from the supplement of paper PMC11246515.
± gives the standard deviation of the averaged measurements.

Assay: total protein half-life in vivo (active degradation + dilution); higher = more stable protein
[1] = E. coli NCM3722 delta-clpP, growth: N-lim chemostat, doubling time 6 h
[2] = E. coli NCM3722 delta-hslV, growth: N-lim chemostat, doubling time 6 h
[3] = E. coli NCM3722 delta-smpB, growth: N-lim chemostat, doubling time 6 h
[4] = wild type E. coli NCM3722, growth: C-lim chemostat, doubling time 3 h
[5] = wild type E. coli NCM3722, growth: C-lim chemostat, doubling time 12 h
[6] = wild type E. coli NCM3722, growth: N-lim chemostat, doubling time 6 h
[7] = wild type E. coli NCM3722, growth: N-lim chemostat, doubling time 12 h
[8] = wild type E. coli NCM3722, growth: P-lim chemostat, doubling time 12 h
[9] = E. coli NCM3722 delta-clpP delta-lon delta-hslV, growth: N-lim chemostat, doubling time 6 h
[10] = E. coli NCM3722 delta-lon, growth: N-lim chemostat, doubling time 6 h
[11] = wild type E. coli NCM3722, growth: C-lim chemostat, doubling time 6 h
[12] = wild type E. coli NCM3722, growth: P-lim chemostat, doubling time 6 h

Sequence | total protein half-life in vivo [1] | total protein half-life in vivo [2] | total protein half-life in vivo [3] | total protein half-life in vivo [4] | total protein half-life in vivo [5] | total protein half-life in vivo [6] | total protein half-life in vivo [7] | total protein half-life in vivo [8] | total protein half-life in vivo [9] | total protein half-life in vivo [10] | total protein half-life in vivo [11] | total protein half-life in vivo [12]
MELLVLVWRQYRWPFISVMALSLASAALGIGLIAFINQRLIETADTSLLVLPEFLGLLLLLMAVTLGSQLALTTLGHHFVYRLRSEFIKRILDTHVERIEQLGSASLLAGLTSDVRNITIAFVRLPELVQGIILTIGSAAYLWMLSGKMLLVTAIWMAITIWGGFVLVARVYKHMATLRETEDKLYTDFQTVLEGRKELTLNRERAEYVFNNLYIPDAQEYRHHIIRADTFHLSAVNWSNIMMLGAIGLVFWMANSLGWADTNVAATYSLTLLFLRTPLLSAVGALPTLLTAQVAFNKLNKFALAPFKAEFPRPQAFPNWQTLELRNVTFAYQDNAFSVGPINLTIKRGELLFLIGGNGSGKSTLAMLLTGLYQPQSGEILLDGKPVSGEQPEDYRKLFSAVFTDVWLFDQLLGPEGKPANPQLVEKWLAQLKMAHKLELSNGRIVNLKLSKGQKKRVALLLALAEERDIILLDEWAADQDPHFRREFYQVLLPLMQEMGKTIFAISHDDHYFIHADRLLEMRNGQLSELTGEERDAASRDAVARTA | 5.55 ± 0.68 h | 2.75 h | 3.49 ± 2.1 h | 3.11 ± 0.83 h | 8.87 h | 3.39 h | 6.04 h | 6.15 h |  |  |  | 
MELRHLRYFVAVAQALNFTRAAEKLHTSQPSLSSQIRDLENCVGVPLLVRDKRKVALTAAGECFLQDALAILEQAENAKLRARKIVQEDRQLTIGFVPSAEVNLLPKVLPMFRLRQPDTLIELVSLITTQQEEKIRRGELDVGLMRHPVYSPEIDYLELFDEPLVVVLPVDHPLAHEKEITAAQLDGVNFVSTDPVYSGSLAPIVKAWFAQENSQPNIVQVATNILVTMNLVGMGLGVTLIPGYMNNFNTGQVVFRPIAGNVPSIALLMAWKKGEMKPALRDFIAIVQERLASVTA |  |  |  | 0.275 h |  |  |  |  | 5.58 ± 0.39 h |  |  | 
MELYLDTANVAEVERLARIFPIAGVTTNPSIIAASKESIWEVLPRLQKAIGDEGILFAQTMSRDAQGMVEEAKRLRDAIPGIVVKIPVTSEGLAAIKILKKEGITTLGTAVYSAAQGLLAALAGAKYVAPYVNRVDAQGGDGIRTVQELQTLLEMHAPESMVLAASFKTPRQALDCLLAGCESITLPLDVAQQMLNTPAVESAIEKFEHDWNAAFGTTHL |  |  | 2.84 h | 2.91 ± 0.4 h | 9.6 ± 0.48 h |  |  | 9.74 ± 0.17 h | 4.61 ± 1.5 h | 3.3 h | 3.9 ± 0.8 h | 5.37 h
MEMTSAFTLNVRLDNIAVITIDVPGEKMNTLKAEFASQVRAIIKQLRENKELRGVVFVSAKPDNFIAGADINMIGNCKTAQEAEALARQGQQLMAEIHALPIQVIAAIHGACLGGGLELALACHGRVCTDDPKTVLGLPEVQLGLLPGSGGTQRLPRLIGVSTALEMILTGKQLRAKQALKLGLVDDVVPHSILLEAAVELAKKERPSSRPLPVRERILAGPLGRALLFKMVGKKTEHKTQGNYPATERILEVVETGLAQGTSSGYDAEARAFGELAMTPQSQALRSIFFASTDVKKDPGSDAPPAPLNSVGILGGGLMGGGIAYVTACKAGIPVRIKDINPQGINHALKYSWDQLEGKVRRRHLKASERDKQLALISGTTDYRGFAHRDLIIEAVFENLELKQQMVAEVEQNCAAHTIFASNTSSLPIGDIAAHATRPEQVIGLHFFSPVEKMPLVEIIPHAGTSAQTIATTVKLAKKQGKTPIVVRDKAGFYVNRILAPYINEAIRMLTQGERVEHIDAALVKFGFPVGPIQLLDEVGIDTGTKIIPVLEAAYGERFSAPANVVSSILNDDRKGRKNGRGFYLYGQKGRKSKKQVDPAIYPLIGTQGQGRISAPQVAERCVMLMLNEAVRCVDEQVIRSVRDGDIGAVFGIGFPPFLGGPFRYIDSLGAGEVVAIMQRLATQYGSRFTPCERLVEMGARGESFWKTTATDLQ | 6.427 ± 0.028 h | 6.27 ± 0.24 h | 5.89 ± 0.35 h | 2.94 ± 0.22 h | 12 ± 0.15 h | 5.986 ± 0.037 h | 13.5 ± 2.2 h | 12.3 ± 0.21 h | 6.37 ± 0.25 h | 6.41 ± 0.81 h | 6.2 ± 0.16 h | 6.1 ± 0.18 h
MENAKMNSLIAQYPLVKDLVALKETTWFNPGTTSLAEGLPYVGLTEQDVQDAHARLSRFAPYLAKAFPETAATGGIIESELVAIPAMQKRLEKEYQQPISGQLLLKKDSHLPISGSIKARGGIYEVLAHAEKLALEAGLLTLDDDYSKLLSPEFKQFFSQYSIAVGSTGNLGLSIGIMSARIGFKVTVHMSADARAWKKAKLRSHGVTVVEYEQDYGVAVEEGRKAAQSDPNCFFIDDENSRTLFLGYSVAGQRLKAQFAQQGRIVDADNPLFVYLPCGVGGGPGGVAFGLKLAFGDHVHCFFAEPTHSPCMLLGVHTGLHDQISVQDIGIDNLTAADGLAVGRASGFVGRAMERLLDGFYTLSDQTMYDMLGWLAQEEGIRLEPSALAGMAGPQRVCASVSYQQMHGFSAEQLRNTTHLVWATGGGMVPEEEMNQYLAKGR | 5.27 ± 1.2 h | 4.89 ± 0.1 h | 4.517 ± 0.042 h | 3.01 ± 0.033 h | 10 ± 1.9 h | 4.91 ± 0.21 h | 7.88 ± 0.44 h | 11.2 ± 2.2 h | 5.22 ± 0.27 h | 5.43 ± 0.24 h |  | 5.98 ± 0.35 h
MENKYSRLQISIHWLVFLLVIAAYCAMEFRGFFPRSDRPLINMIHVSCGISILVLMVVRLLLRLKYPTPPIIPKPKPMMTGLAHLGHLVIYLLFIALPVIGLVMMYNRGNPWFAFGLTMPYASEANFERVDSLKSWHETLANLGYFVIGLHAAAALAHHYFWKDNTLLRMMPRKRS [P0ABE5] | 5.78 h | 6.32 h | 5.9 h | 2.81 ± 0.06 h | 14.8 h |  | 10.6 h | 11.9 h | 7.28 h |  | 5.31 h | 
MENLARFLSTTLKQLRQQRGWSLSRLAEATGVSKAMLGQIERNESSPTVATLWKIATGLNVPFSTFISPPQSATPSVYDPQQQAMVITSLFPYDPQLCFEHFSIQMASGAISESTPHEKGVIEHVVVIDGQLDLCVDGEWQTLNCGEGVRFAADVTHIYRNGGEQTVHFHSLIHYPRS | 4.59 ± 0.28 h | 4.71 ± 0.22 h | 5.33 ± 1.1 h | 3.4 ± 0.15 h | 10.1 ± 0.49 h | 4.52 ± 0.93 h | 7.78 ± 0.9 h | 9.9 ± 0.44 h | 5.69 ± 0.83 h | 5.58 ± 0.23 h | 5.27 ± 0.69 h | 6.27 ± 1.1 h
